# Where two headings read alike, the source gives them in different places.
# What was measured:
# [1] = biological target: HLA-DR1 purified from human homozygous EBV-transformed B cell lines (human); test: size-exclusion column of YEAK incubated with an excess of HLA-DR purified from B cell lines
# [2] = biological target: HLA-DR2 purified from human homozygous EBV-transformed B cell lines (human); test: as above
# [3] = biological target: HLA-DR4 purified from human homozygous EBV-transformed B cell lines (human); test: as above
# [4] = biological target: recombinant water-soluble 'empty' HLA-DR4 (DRB1*0401) (human)
# [5] = biological target: recombinant water-soluble 'empty' HLA-DR1 (DRB1*0101) (human); test: competitive binding ELISA on recombinant HLA-DR1; competitor biotinylated YEAK
# [6] = biological target: recombinant water-soluble 'empty' HLA-DR1 (DRB1*0101) (human); test: incubation 1:1 with water-soluble HLA-DR, Centricon ultrafiltration, acid extraction, amino acid analysis
# [7] = biological target: recombinant water-soluble 'empty' HLA-DR2 (DRB1*1501) (human); test: as above
# [8] = biological target: recombinant water-soluble 'empty' HLA-DR4 (DRB1*0401) (human); test: as above
# [9] = biological target: T1, recombinant water-soluble 'empty' HLA-DR4 (DRB1*0401) (human); test: competitive binding ELISA on recombinant HLA-DR4; competitor biotinylated YEAK
# T1 construct: extracellular domain; extracellular domain is inferred from 'water-soluble'
# [10] = biological target: HLA-DR1 on L fibroblasts transfected with HLA-DR1 (L57.23) (human); test: cell-based or functional assay
# [11] = biological target: HLA-DR4 on L fibroblasts transfected with HLA-DR4 (human); test: cell-based or functional assay
# [12] = biological target: T1, recombinant water-soluble 'empty' …; test: competitive binding ELISA; competitors biotinylated Multipin peptides
# [13] = biological target: T2, recombinant water-soluble 'empty' HLA-DR1 (DRB1*0101) (human); test: as above
# T2 construct: extracellular domain
molecule,measurement,setting,value
"heteropolymer YEAK (Copolymer 1), poly(Y,E,A,K)",percent of YEAK at the lower molecular weight position of control (unbound) YEAK,[1],< 10%
same,percent of YEAK at the lower molecular weight position of control (unbound) YEAK,[2],< 10%
same,percent of YEAK at the lower molecular weight position of control (unbound) YEAK,[3],< 10%
same,affinity determined by competition,[4],2.5 µM
same,affinity determined by competition,[5],8 µM
same,percent of added YEAK in the bound fraction,[6],> 95%
same,percent of added YEAK in the bound fraction,[7],80%
same,percent of added YEAK in the bound fraction,[8],> 95%
"AAKYAEAAAAKAAAA (also called peptide 15) [synthetic 15-mer peptide SEQ ID NO: 15, AAKYAEAAAAKAAAA]",affinity determined by competition,[9],< 1 µM
same,inhibition of the response of 19.3 T cells (IL-2 secretion),[10],~100%
same,inhibition of the DR4 D3 T cell clone (IL-2 secretion),[11],> 80%
"AAEYKAAAAAAAAAA [synthetic 15-mer peptide SEQ ID NO: 26, AAEYKAAAAAAAAAA]",inhibition of the response of 19.3 T cells (IL-2 secretion),[10],~100%
"AKKYAAAAAAKAAAA [synthetic 15-mer peptide SEQ ID NO: 8, AKKYAAAAAAKAAAA]",inhibition of the DR4 D3 T cell clone (IL-2 secretion),[11],> 80%
"AEAYKAAAAAAAAAA [synthetic 15-mer peptide SEQ ID NO: 23, AEAYKAAAAAAAAAA]",inhibition of the DR4 3838 T cell clone (IL-2 secretion),[11],> 80%
"AKKYAEAAAAAAAAA [synthetic 15-mer peptide SEQ ID NO: 22, AKKYAEAAAAAAAAA]",inhibition of the DR4 3838 T cell clone (IL-2 secretion),[11],> 80%
"AEKYAAAAAAKAAAA [synthetic 15-mer peptide SEQ ID NO: 6, AEKYAAAAAAKAAAA]",inhibition of the DR4 3838 T cell clone (IL-2 secretion),[11],> 80%
"AEEYAAAAAAKAAAA [synthetic 15-mer peptide SEQ ID NO: 11, AEEYAAAAAAKAAAA]",inhibition of the DR4 3838 T cell clone (IL-2 secretion),[11],> 80%
"EKKYAAAAAAKAAAA [synthetic 15-mer peptide SEQ ID NO: 17, EKKYAAAAAAKAAAA]",inhibition of the DR4 3838 T cell clone (IL-2 secretion),[11],> 80%
"EAAYAAAAAAKAAAA [synthetic 15-mer peptide SEQ ID NO: 16, EAAYAAAAAAKAAAA]",inhibition of the DR4 3838 T cell clone (IL-2 secretion),[11],> 80%
same,inhibition of the DR4 D3 T cell clone (IL-2 secretion),[11],> 80%
"EAKYAAAAAAKAAAA [synthetic 15-mer peptide SEQ ID NO: 18, EAKYAAAAAAKAAAA]",affinity determined by competition,[9],3 µM
same,inhibition of the DR4 D3 T cell clone (IL-2 secretion),[11],> 80%
"AGFKGEQGPKGEP [collagen II (CII) peptide 261-273, AGFKGEQGPKGEP]",binding result,[12],binds
same,binding result,[13],binds
"AKEYAAAAAAAAAAA [synthetic 15-mer peptide SEQ ID NO: 20, AKEYAAAAAAAAAAA]",inhibition of the response of 19.3 T cells (IL-2 secretion),[10],~100%
"EKAYAAAAAAAAAAA [synthetic 15-mer peptide SEQ ID NO: 27, EKAYAAAAAAAAAAA]",inhibition of the response of 19.3 T cells (IL-2 secretion),[10],~100%
same,inhibition of the DR4 3838 T cell clone (IL-2 secretion),[11],> 80%
same,inhibition of the DR4 D3 T cell clone (IL-2 secretion),[11],> 80%
"AAKYEAAAAAAAAAA [synthetic 15-mer peptide SEQ ID NO: 28, AAKYEAAAAAAAAAA]",inhibition of the DR4 3838 T cell clone (IL-2 secretion),[11],> 80%
"AEKAYAAAAAAAAAA [synthetic 15-mer peptide SEQ ID NO: 33, AEKAYAAAAAAAAAA]",inhibition of the DR4 3838 T cell clone (IL-2 secretion),[11],> 80%

# From patent US20040006022A1 (Harvard, published 2004)
